Experimental data reported in the RNAGym collection of RNA variant scans (doi:10.1073/pnas.2313332121).

B1: TPR t1 (parent)
chain: GACCAAUCUGCCCUCAGAGCUCGAGAACAUCUUCGGAUGCAGAGGAGGCAGGCUUCGGUGGCGCGAUAGCGCCAACGUCCUCAACCUCCAAUGCAUCCCACCACAUGAUGAUGCCUGAAGAGCCUUGGUUUUUUG

Variants of: B1
Experiment: polymerase ribozyme fitness, log enrichment relative to wild type (log ratio); higher = more active; in vitro selection for triplet polymerase activity
Outline: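 Fitness is a logarithmic measure of how a genotype enriched relative to the wild type, with replicate averages weighted by inverse variance. The logarithm uses base 2, and enrichment came from Illumina sequencing of input and output libraries. Those libraries were PCR-built, transcribed mutants of each subunit of a heterodimeric triplet polymerase ribozyme, passed through one triplicate in vitro selection round that included frozen incubation at −7 °C, gel excision of extended constructs and streptavidin-bead capture. Genotypes were kept only if they had ≥10 input reads and ≥1 read per output.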

| Variant | polymerase ribozyme fitness (log ratio) |
| --- | --- |
| GACCAAUCUGCCCUCAGAGCUCGAGAACAUCUUCGGAUACAGAGGAGGCAGGCUUCGGUGGCGCGAUAGCGUCAACGUCCUCAACCUCCAAUGCAUCCUACCACAUGAUGAUGCCUGAAAAGCCUCGGUUUUUUG [G39A C72U C99U G120A U126C] | -3.09 |
| GACCAAUCUGCCCUCAGAGCUCGAGAACAUCUUCGGAUACAGAGGAGGCAGGCUUCUGUGGCGCGAUAGCUCCAACGGCCUCAACCUCCAAUGCAUCCCACCACAUGAUGAUGCCUGAAGAGACUUGGUUUUUUG [G39A G57U G71U U78G C123A] | -0.79 |
| GACCAAUCUGCCCUCAGAGCUCGAGAACAUCUUCGGAUACAGAGGAGGCAGGCUUCGGUGGCGCGAUACCGCCAACGUCCUCAACCUCCAAUGCAUCCCACCACAUGAUGAUGCCUGAAGAGCCUUGGUUUUUUG [G39A G69C] | -0.611 |
| GACCAAUCUGCCCUCAGAGCUCGAGAACAUCUUCGGAUCCAGAGGAGGCAGGCUUCGGUGGAGCGAUAGCGCCAACGUCCUCAACCUCCAAUGCAUCCCACCACAUGAUGAUGCCUGAAGAGCCUUGGUUUUUUG [G39C C62A] | -0.902 |
| GACCAAUCUGCCCUCAGAGCUCGAGAACAUCUUCGGAUCCAGAUGAGGCAGGCUUCGGUGGCGCGAUAGCGCCAACGUCCUCAACCUCCAAUGCAUCCCACCACAUGAUGAUGCCUGAAGAGCCUUGGUUUUUUG [G39C G44U] | -2.29 |
| GACCAAUCUGCCCUCAGAGCUCGAGAACAUCUUCGGAUACAGAGGAGGCAGGCUUCGGUAGCGCGAUAGCGCCAACGUCCUCAACUUCCAAUGCAUCCCACCACAUGAUGAUGCCAGAAGAGCCUUGGUUUUUUG [G39A G60A C86U U116A] | -3.99 |
| GACCAAUCUGCCCUCAGAGCUCGAGAACAUCUUCGGAUACAGAGGAGGCAGGCUUGGGUGGCGCGAUAGCGCCAACGUCCUCAACCUCCAAUGGAUCCCACCACAUGAUGCUGUCUGAAGAGCCUUGGUGUUUUG [G39A C56G C94G A111C C114U U130G] | -4.67 |
| GACCAAUCUGCCCUCAGAGCUCGAGAACAUCUUCGGAUACAGAGGAGGCAGGCUUCGGUGGCGCGAUAGCGCCAACGUCCUCAACCUCCAAUGCAUCCCACCACAUGAUGAUGCAUGAAGAGCCUUGGUUUUUUG [G39A C115A] | -0.711 |
| GACCAAUCUGCCCUCAGAGCUCGAGAACAUCUUCGGAUCCAGAGGAGGCAGGCUUCGGUGGCGCGAUAGCGCCAACGUCCUCAACCUCCAAUGCAUCCCACCACAUGAUGAUGACUGAAGAGCCUUGGUUUUUUG [G39C C114A] | -1.94 |
| GACCAAUCUGCCCUCAGAGCUCGAGAACAUCUUCGGAUACAGAGGAGGCAGGCUUCGGUGGCGCGAUAGCACCAACGUCCUCAACAUCCAAUGCAUCCCCCCACAUGAUGAUGCCUGAAGAGCCUUGGUUUUUUG [G39A G71A C86A A100C] | -4 |
| GACCAAUCUGCCCUCAGAGCUCGAGAACAUCUUCGGAUACAGAGGAGGCAGGCUUCGGUGGAGCGAUAGCGCCAACGUCCUCAACCUCGAAUGCAUCCCAUCACAUGAUGAUGCCUGAAGAGCCUUGGUUUUUUG [G39A C62A C89G C101U] | -5.16 |
| GACCAAUCUGCCCUCAGAGCUCGAGAACAUCUUCGGAUACAGAGGAGGCAGGCUUUGGUGGCGCGAUAGCGCCAACGUCCUCAACCUCCAAUGCAUCCCACCACAUUAUGUUGCCUGAAGAGCCUUGGAUUUUUG [G39A C56U G107U A111U U129A] | -5.29 |
| GACCAAUCUGCCCUCAGAGCUCGAGAACAUCUUCGGAUCCAGAGGAGGCAGGCUUCGGUGGCGCGAUAGCGUCAACGUCCUCAACCUCCAAUGCAUCCCACCACAUGAUGAUGCCUGAAGAGCCUUGGGUUUUUG [G39C C72U U129G] | -2.2 |
| GACCAAUCUGCCCUCAGAGCUCGAGAACAUCUUCGGAUACAGAGGAGGCAGGCUUCAGUCGCGCGAUAGCGCCAACGUCCUCAACCUCCAAUGCAUCCCAACACAUGAUGAUCCCUGAAGAGCCUUGGUUUUUUG [G39A G57A G60C C101A G113C] | -6.12 |
| GACCAAUCUGCCCUCAGAGCUCGAGAACAUCUUCGGAUACAGAGGAGGCAGGCUUCGGUGGCGCGAUAGCGCCAACGUCCUCAACCUCCAAUGCAUCCCACCACAUGAUGAUGCCUGAAGAGCCUUGGUUUUUUU [G39A G135U] | -1.41 |
| GACCAAUCUGCCCUCAGAGCUCGAGAACAUCUUCGGAUCCAGAGGAGGCAGGCUUCGGUGGCGCGUUAGCGCCAGCGUCCUCAACCUGCAAUGCAUCCCACCACAUGAUGAUGCCUGAAGAGUCUUGGUUUUUUG [G39C A66U A75G C88G C123U] | -3.46 |
| GACCAAUCUGCCCUCAGAGCUCGAGAACAUCUUCGGAUCCAGAGGACGCAGGCUUCGGUGGCGCGAUAGCGCCAACGUCCUCAACCUCCAAUGCAUCCCACCACAUGAUGAUGCCUGAAGAGCCUUGGUUUUUUG [G39C G47C] | -3.08 |
| GACCAAUCUGCCCUCAGAGCUCGAGAACAUCUUCGGAUCCAGUGGAGGCAGGCUUCGGUGGCGCGAUAGCGCCAACGUCCUCAACCUCCGAUGCAUCCCACCACAUGAUGAUGUCUGAAGAGCCAUGGUUUUUUG [G39C A43U A90G C114U U125A] | -2.64 |
| GACCAAUCUGCCCUCAGAGCUCGAGAACAUCUUCGGAUACAGAGGAGGCAGGCUUCGGUGGCGCGAUAGCGCAAACGUCCUCAACCUCCAAUGCAUCCCACCACAUGAUGAUGCCUAAGGAGCCUUGGUUUUUUG [G39A C73A G117A A119G] | 1.02 |
| GACCAAUCUGCCCUCAGAGCUCGAGAACAUCUUCGGAUCCAGAGGAGGCAGGAGUCGGUGGCGCGAUAGCGCCAACGUCCUCAACCUCCAAUGCAUCCCACCACAUGAUGAUGCCUGAAUAGCCUUGGUUUUUUG [G39C C53A U54G G120U] | 0.139 |
| GACCAAUCUGCCCUCAGAGCUCGAGAACAUCUUCGGAUCCAGGGGAGGCAGGCUUCGGUGGCGCGAUAGCGCCAACGUCCUCAACCUCCAAUGCAUCCCACCACAUGAUGAUGCCUGAAGAGCUUUGGUUUUUUG [G39C A43G C124U] | -0.831 |
